Measured values reported in patent US20240293570A1 (priority 2021, published 2024).
Like-named read-outs stand apart in the source and are kept apart here. *1 amine or outer side, *2 acyl side, *3 side chain or, on linkers, in order; H or OH if unused. Where a SMILES comes first, the peptide text is derived from it. [ ]: non-standard residue; d: D form. The star is where a group is joined. ξ: configuration not given here. Exatecan = CC[C@@]1(O)C(=O)OCc2c1cc1n(c2=O)Cc2c-1nc1cc(F)c(C)c3c1c2[C@@H](N*)CC3; Dolaproine = CO[C@@H]([C@@H]1CCCN1)[C@@H](C)C(=O)O; X2 = CO[C@@H]([C@H]1CCCN1[*:1])[C@@H](C)C(=O)[*:2]; ξDil = CC[C@H](C)C([C@@H](CC(=O)[*:2])OC)N(C)[*:1]; Hexanoyl(6-maleimido) = O=C1C=CC(=O)N1CCCCCC(=O)*; Propanoyl(3-maleimido) = O=C1C=CC(=O)N1CCC(=O)*; Dil = CC[C@H](C)[C@H](NC)[C@@H](CC(=O)O)OC; PABC = O=C(OCc1ccc(N[*:1])cc1)[*:2]; NHCH2OCH2CO = O=C(COCN[*:1])[*:2]; X3 = C[C@@H](N*)[C@@H](O)c1ccccc1; NMeV = CN[C@H](C(=O)O)C(C)C

Assays:
[1] = Polymer (high molecular component) content of antibody-drug conjugates by SE-HPLC; format: physicochemical; conditions: ADC with Her2 antibody
Description: (§1) Polymers (high molecular components) of the antibody-drug conjugates were tested using molecular exclusion high-performance liquid chromatography (SE-HPLC). A Biocore SEC chromatographic column (7.8×300 mm, […]) was used, and the mobile phase was 50 mM phosphate containing 300 mM sodium chloride (pH 6.8), with a flow rate of 0.5 mL/min. Samples of […] and 10 μl were injected. […] The polymer content of an antibody-drug conjugate was calculated using an area normalization method.

[2] = format: physicochemical; conditions: ADC with Her2 antibody, RP-HPLC-MS
Description: (§2) A drug-antibody conjugating ratio (also known as drug-antibody ratio, abbreviated as DAR) of the antibody-drug conjugate was tested using reversed-phase high-performance liquid chromatography-mass chromatography (RP-HPLC-MS). The ADC sample was diluted with 50 mmol/L Tris buffer (pH 8.0) to 1 mg/ml. A fresh dithiothreitol (DTT) stock solution was added to achieve a final DTT concentration of 50 mmol/L. Incubation was performed at 37° C. for 30 minutes. A PLRP-S chromatographic column (1000 Å pores, 2.1×50 mm, 5) μm) was used, and the column temperature was 70° C. The flow rate was 0.25 mL/min. […] of sample was injected; the mobile phase A was an aqueous solution of 0.1% formic acid (V/V) and 0.025% trifluoroacetic acid (V/V), and the mobile phase B was an acetonitrile solution of 0.1% formic acid (V/V) and 0.025% trifluoroacetic acid (V/V); the running time was 0-3 minutes, where 27% of mobile phase B ran for 3 minutes, and the mobile phase B ran from 27% to 49% within 3-25 minutes, from 49% to 95% within 25-26 minutes, at 95% within […], from 95% to 27% within 30-31.5 minutes, and at 27% for 31.5-45 minutes. […] Mass spectrometry drying gas was at a temperature of 350° C. and a flow rate of 7.0 L/min, the pressure of an atomizer was 40 psi, capillary voltage was positive 3000V and negative 3000V, and the mass range was 500-1600 m/z. The molecular weight of each mass spectrometry peak (ranging from 20000 to 70000) was calculated by deconvolution and compared with light and heavy chain molecular weights of un-conjugated antibodies to calculate a drug load at each peak, so as to determine the load of a corresponding ultraviolet peak. Area percentages of heavy and light chain ultraviolet peaks were calculated through integration, and a weighted average DAR of the antibody-drug conjugate was calculated by combining the area percentages with the drug load distribution of each peak.

[3] = Naked antibody content of antibody-drug conjugates by hydrophobic interaction chromatography (HIC); format: physicochemical; conditions: ADC with Her2 antibody
Description: The content of naked antibodies in the antibody-drug conjugate was tested using hydrophobic interaction chromatography (HIC). A Biocore HIC-Butyl chromatographic column (4.6×150 mm, 5 μm) was used. The mobile phase A was a 100 mM phosphate aqueous solution containing 2 M ammonium sulfate (pH 7.0), and the mobile phase B was a 100 mM phosphate aqueous solution (pH 7.0): isopropanol=80:20 (V/V). Samples of 50 μg and 10 μl were injected. The mobile phase A at the flow rate of 1 mL/min ran at 100% for 3 minutes. Within 3-25 minutes, the mobile phase B ran from […] to 100%, while the mobile phase B decreased to 0% at 25.1 and ran to 30 minutes. […] The naked antibody content of the antibody-drug conjugate was calculated using an area normalization method based on the retention time of a naked antibody peak located by the antibody of the antibody-drug conjugate.

[4] = Stability (placement) test of ADCs at 40° C. in dark for 14 days, DAR and polymer content; format: physicochemical
Description: as §1, §2
Stability testing method: The stability of the obtained ADCs was tested for 14 days. The ADCs were placed at 40° C. in dark. Sampling points were days 0, 7, and 14. The polymer content and DAR value of samples at different sampling points were tested according to the method in Experimental Example 1.

SMILES	Polymer content (%) [1]	DAR [2]	Naked antibody content (%) [3]	DAR ([4]; Day 0, 40° C. in dark)	Polymer content (%) ([4]; Day 0, 40° C. in dark)	DAR ([4]; Day 7, 40° C. in dark)	Polymer content (%) ([4]; Day 7, 40° C. in dark)	DAR ([4]; Day 14, 40° C. in dark)	Polymer content (%) ([4]; Day 14, 40° C. in dark)
CC[C@H](C)[C@@H]([C@@H](CC(=O)N1CCC[C@H]1[C@H](OC)[C@@H](C)C(=O)N[C@H](C)[C@@H](O)c1ccccc1)OC)N(C)C(=O)[C@@H](NC(=O)[C@H](C(C)C)N(C)C(=O)OCc1ccc(NC(=O)CNC(=O)[C@H](Cc2ccccc2)NC(=O)CNC(=O)CNC(=O)CCCCCN2C(=O)C=CC2=O)cc1)C(C)C [Comparative Example 1, reference compound] ({Hexanoyl(6-maleimido)}-GGFG[PABC][NMeV]V[Dil][Dolaproine]-X3)	38.31%	1.03	23.50%	–	–	–	–	–	–
C=C1C[C@@H]2CC[C@@]34C[C@H]5OC6C(O[C@H]7CC[C@H](CC(=O)C[C@@H]8[C@@H](OC)[C@@H](C[C@H](O)CNC(=O)CNC(=O)[C@H](Cc9ccccc9)NC(=O)CNC(=O)CNC(=O)CCOCCOCCN(CCOCCOCCC(=O)NCC(=O)NCC(=O)N[C@@H](Cc9ccccc9)C(=O)NCC(=O)NCOCC(=O)N[C@H]9CCc%10c(C)c(F)cc%11nc%12c(c9c%10%11)Cn9c-%12cc%10c(c9=O)COC(=O)[C@]%10(O)CC)C(=O)CCCCCN9C(=O)C=CC9=O)O[C@H]8C[C@H]8O[C@@H](CC[C@@H]1O2)C[C@@H](C)C8=C)O[C@@H]7[C@@H]6O3)[C@H]5O4 [Comparative Example 3, reference compound]	50.73%	0.81	60.77%	–	–	–	–	–	–
CCc1c2c(nc3ccc(O)cc13)-c1cc3c(c(=O)n1C2)COC(=O)[C@@]3(CC)OC(=O)N(C)CCN(C)C(=O)COCNC(=O)CNC(=O)[C@H](Cc1ccccc1)NC(=O)CNC(=O)CNC(=O)CCN1C(=O)C=CC1=O [Comparative Example 6, reference compound]	13.74%	2.76	9.06%	–	–	–	–	–	–
C=C1C[C@@H]2CC[C@@]34C[C@H]5OC6C(O[C@H]7CC[C@H](CC(=O)C[C@@H]8[C@@H](OC)[C@@H](CC(O)CNC(=O)CNC(=O)[C@H](Cc9ccccc9)NC(=O)CNC(=O)CNC(=O)CCOCCOCCC(CCOCCOCCC(=O)NCC(=O)NCC(=O)N[C@@H](Cc9ccccc9)C(=O)NCC(=O)NCOCC(=O)N[C@H]9CCc%10c(C)c(F)cc%11nc%12c(c9c%10%11)Cn9c-%12cc%10c(c9=O)COC(=O)[C@]%10(O)CC)C9CCC(NC(=O)CCOCCOCCOCCOCCN%10C(=O)C=CC%10=O)CC9)O[C@H]8C[C@H]8O[C@@H](CC[C@@H]1O2)C[C@@H](C)C8=C)O[C@@H]7[C@@H]6O3)[C@H]5O4 (stereo partly shown) [Comparative Example 7, reference compound]	60.31%	0.86	53.82%	–	–	–	–	–	–
CC[C@H](C)C([C@@H](CC(=O)N1CCC[C@@H]1[C@H](OC)[C@@H](C)C(=O)N[C@H](C)[C@@H](O)c1ccccc1)OC)N(C)C(=O)[C@@H](NC(=O)[C@H](C(C)C)N(C)C(=O)OCc1ccc(NC(=O)CNC(=O)[C@H](Cc2ccccc2)NC(=O)CNC(=O)CNC(=O)CCN2C(=O)C=CC2=O)cc1)C(C)C (stereo partly shown) [Comparative Example 8, reference compound] ({Propanoyl(3-maleimido)}-GGFG[PABC][NMeV]V[ξDil][X2]-X3)	12.37%	2.57	10.15%	–	–	–	–	–	–
C=C1C[C@@H]2CC[C@@]34C[C@H]5OC6C(O[C@H]7CC[C@H](CC(=O)C[C@@H]8[C@@H](OC)[C@@H](C[C@H](O)CNC(=O)CNC(=O)[C@H](Cc9ccccc9)NC(=O)CNC(=O)CNC(=O)CCOCCOCCN(CCOCCOCCC(=O)NCC(=O)NCC(=O)N[C@@H](Cc9ccccc9)C(=O)NCC(=O)NCOCC(=O)N[C@H]9CCc%10c(C)c(F)cc%11nc%12c(c9c%10%11)Cn9c-%12cc%10c(c9=O)COC(=O)[C@]%10(O)CC)C9CCC(NC(=O)CCCCCN%10C(=O)C=CC%10=O)CC9)O[C@H]8C[C@H]8O[C@@H](CC[C@@H]1O2)C[C@@H](C)C8=C)O[C@@H]7[C@@H]6O3)[C@H]5O4 (stereo partly shown) [Comparative Example 9, reference compound]	70.65%	0.91	57.78%	–	–	–	–	–	–
C=C1C[C@@H]2CC[C@@]34C[C@H]5OC6C(O[C@H]7CC[C@H](CC(=O)C[C@@H]8[C@@H](OC)[C@@H](C[C@H](O)CNC(=O)CNC(=O)[C@H](Cc9ccccc9)NC(=O)CNC(=O)CNC(=O)CCN9C(=O)C=CC9=O)O[C@H]8C[C@H]8O[C@@H](CC[C@@H]1O2)C[C@@H](C)C8=C)O[C@@H]7[C@@H]6O3)[C@H]5O4 [Comparative Example 12, reference compound]	13.18%	2.67	7.00%	–	–	–	–	–	–
C=C1C[C@@H]2CC[C@@]34C[C@H]5OC6C(O[C@H]7CC[C@H](CC(=O)C[C@@H]8[C@@H](OC)[C@@H](C[C@H](O)CNC(=O)CNC(=O)[C@H](Cc9ccccc9)NC(=O)CNC(=O)CNC(=O)CCOCCOCCN(CCOCCOCCC(=O)NCC(=O)NCC(=O)N[C@@H](Cc9ccccc9)C(=O)NCC(=O)NCOCC(=O)N[C@H]9CCc%10c(C)c(F)cc%11nc%12c(c9c%10%11)Cn9c-%12cc%10c(c9=O)COC(=O)[C@]%10(O)CC)C9CCC(C(=O)CCOCCOCCN%10C(=O)C=CC%10=O)CC9)O[C@H]8C[C@H]8O[C@@H](CC[C@@H]1O2)C[C@@H](C)C8=C)O[C@@H]7[C@@H]6O3)[C@H]5O4 (stereo partly shown) [Comparative Example 13, reference compound]	78.50%	1.01	60.37%	–	–	–	–	–	–
CC[C@@]1(O)C(=O)OCc2c1cc1n(c2=O)Cc2c-1nc1cc(F)c(C)c3c1c2[C@@H](NC(=O)COCNC(=O)CNC(=O)[C@H](Cc1ccccc1)NC(=O)CNC(=O)CNC(=O)CCCCCN1C(=O)C=CC1=O)CC3 [Comparative Example 14, reference compound] ({Hexanoyl(6-maleimido)}-GGFG[NHCH2OCH2CO]-Exatecan)	–	8.00	–	–	–	–	–	–	–
C=C1C[C@@H]2CC[C@@]34C[C@H]5OC6C(O[C@H]7CC[C@H](CC(=O)C[C@@H]8[C@@H](OC)[C@@H](C[C@H](O)CNC(=O)CNC(=O)[C@H](Cc9ccccc9)NC(=O)CNC(=O)CNC(=O)CCOCCOCCN(CCOCCOCCC(=O)NCC(=O)NCC(=O)N[C@@H](Cc9ccccc9)C(=O)NCC(=O)NCOCC(=O)N[C@H]9CCc%10c(C)c(F)cc%11nc%12c(c9c%10%11)Cn9c-%12cc%10c(c9=O)COC(=O)[C@]%10(O)CC)C(=O)CN9CCOCCOCCOCCOCCN(C(=O)CCCCCC%10C(=O)C=CC%10=O)CCOCCOCCOCCOCC9)O[C@H]8C[C@H]8O[C@@H](CC[C@@H]1O2)C[C@@H](C)C8=C)O[C@@H]7[C@@H]6O3)[C@H]5O4 [Example 14]	0.59%	3.82	4.97%	3.82	0.59%	3.83	0.63%	3.84	0.72%
C=C1C[C@@H]2CC[C@@]34C[C@H]5OC6C(O[C@H]7CC[C@H](CC(=O)C[C@@H]8[C@@H](OC)[C@@H](C[C@H](O)CNC(=O)CNC(=O)[C@H](Cc9ccccc9)NC(=O)CNC(=O)CNC(=O)CCOCCOCCN(CCOCCOCCC(=O)NCC(=O)NCC(=O)N[C@@H](Cc9ccccc9)C(=O)NCC(=O)NCOCC(=O)N[C@H]9CCc%10c(C)c(F)cc%11nc%12c(c9c%10%11)Cn9c-%12cc%10c(c9=O)COC(=O)[C@]%10(O)CC)C(=O)CN9CCOCCOCCOCCOCCN(C(=O)CCOCCOCCOCCOCCOCCOCCOCCOCCN%10C(=O)C=CC%10=O)CCOCCOCCOCCOCC9)O[C@H]8C[C@H]8O[C@@H](CC[C@@H]1O2)C[C@@H](C)C8=C)O[C@@H]7[C@@H]6O3)[C@H]5O4 [Example 15]	1.20%	4.07	3.63%	4.07	1.20%	4.07	1.21%	4.11	1.27%
